Source: US20140087995A1 (published 2014)
Numbered stars: 1 amine (or outer) side, 2 acyl side, 3 side chain; on linkers, the order of the positions; unused ones are H or OH. Bridge positions count the residues as written; N and C are the ends. Square brackets hold non-standard residues; d marks the D form. Side chains are listed from the residue outwards. Ends that are not written are not given here. * marks the point of attachment. C20 diacid = O=C(O)CCCCCCCCCCCCCCCCCCC(=O)*; γGlu = O=C(O)[C@H](CCC(=O)[*:2])N[*:1]; AEEA = NCCOCCOCC(=O)O

T1: rat calcitonin receptor (rat, UniProt P32214 25-516)
T1 construct: whole, on cells; Membranes of BHK tk'ts 13 cells transiently transfected with the rat calcitonin receptor; also called rCTR; rat calcitonin (a) receptor
T1 sequence (looked up): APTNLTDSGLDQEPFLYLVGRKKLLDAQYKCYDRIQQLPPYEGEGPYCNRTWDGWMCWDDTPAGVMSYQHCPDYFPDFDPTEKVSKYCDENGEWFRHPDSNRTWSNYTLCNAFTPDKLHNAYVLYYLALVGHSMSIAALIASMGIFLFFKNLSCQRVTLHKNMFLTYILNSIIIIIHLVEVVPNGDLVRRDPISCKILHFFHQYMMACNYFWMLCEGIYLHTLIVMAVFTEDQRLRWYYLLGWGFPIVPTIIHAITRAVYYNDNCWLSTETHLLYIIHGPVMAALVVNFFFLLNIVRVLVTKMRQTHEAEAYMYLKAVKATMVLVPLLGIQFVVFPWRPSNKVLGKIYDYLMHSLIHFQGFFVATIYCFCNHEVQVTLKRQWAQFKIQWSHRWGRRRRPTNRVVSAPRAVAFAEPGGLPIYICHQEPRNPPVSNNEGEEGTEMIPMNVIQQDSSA

T2: human calcitonin receptor (human, UniProt P30988 25-474)
T2 construct: whole, on cells; Membranes of a BHK tk'ts 13 cell line stably transfected with the human calcitonin receptor; also called hCTR; hCT
T2 sequence (looked up): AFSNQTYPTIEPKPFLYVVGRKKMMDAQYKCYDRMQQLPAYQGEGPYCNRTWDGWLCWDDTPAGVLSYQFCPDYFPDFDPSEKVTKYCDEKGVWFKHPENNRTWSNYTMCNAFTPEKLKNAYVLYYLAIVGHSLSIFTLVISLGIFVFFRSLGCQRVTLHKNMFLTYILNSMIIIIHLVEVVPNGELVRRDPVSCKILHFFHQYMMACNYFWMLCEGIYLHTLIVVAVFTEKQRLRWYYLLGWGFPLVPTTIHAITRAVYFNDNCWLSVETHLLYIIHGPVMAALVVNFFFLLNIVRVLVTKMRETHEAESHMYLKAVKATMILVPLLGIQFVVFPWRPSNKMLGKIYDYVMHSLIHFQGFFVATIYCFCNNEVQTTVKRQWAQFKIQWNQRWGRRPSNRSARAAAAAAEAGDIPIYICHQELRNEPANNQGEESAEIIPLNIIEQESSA

T3: rat amylin receptor (rat calcitonin receptor + rat RAMP 3) (rat, UniProt P32214 25-516; Q9JJ73 23-147)
T3 construct: whole, on cells; Membranes of BHK tk'ts 13 cells transiently transfected with the rat calcitonin receptor and rat RAMP 3; also called rAmylin-R; rat amylin 3(a) receptor
T3 sequence (looked up) 1: T1 sequence (looked up)
T3 sequence (looked up) 2: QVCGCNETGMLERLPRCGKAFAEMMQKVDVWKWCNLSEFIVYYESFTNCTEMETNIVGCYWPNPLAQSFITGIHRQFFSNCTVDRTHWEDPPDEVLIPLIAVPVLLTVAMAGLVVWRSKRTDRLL

T4: rat calcitonin receptor (rat, UniProt P32214 25-516)
T4 construct: whole, on cells; Membranes prepared from transiently transfected BHK tk'ts 13 cells; also called rCTR; rat calcitonin (a) receptor
T4 sequence (looked up): T1 sequence (looked up)

T5: rat amylin receptor (rat calcitonin receptor + rat RAMP 3) (rat, UniProt P32214 25-516; Q9JJ73 23-147)
T5 construct: whole, on cells; Membranes prepared from transiently transfected BHK tk'ts 13 cells; also called rAmylin-R; rat amylin 3(a) receptor
T5 sequence (looked up) 1: T1 sequence (looked up)
T5 sequence (looked up) 2: T3 sequence (looked up) 2

T6: rat calcitonin receptor (rat, UniProt P32214 25-516)
T6 construct: whole, on cells; Cell membranes of transiently transfected BHK tk'ts 13 cells (Assay VIII); also called rCTR; rCT
T6 sequence (looked up): T1 sequence (looked up)

T7: rat amylin receptor (rat calcitonin receptor + rat RAMP 3) (rat, UniProt P32214 25-516; Q9JJ73 23-147)
T7 construct: whole, on cells; Cell membranes of transiently transfected BHK tk'ts 13 cells (Assay VI); also called rAmylin-R; rat amylin 3(a) receptor
T7 sequence (looked up) 1: T1 sequence (looked up)
T7 sequence (looked up) 2: T3 sequence (looked up) 2

B1: N^ε1-[(4S)-4-carboxy-4-(19-carboxynonadecanoylamino)butanoyl]-[Arg17,Pro21,Pro27]-h-amylin (peptide)
peptide: K([γGlu-C20 diacid])CNTATCATQRLANFLRHSSPNFGAIPSSTNVGSNTY-NH2
modifications: disulfide 2-7; N-terminus assumed
SMILES: CC[C@H](C)[C@H](NC(=O)[C@H](C)NC(=O)CNC(=O)[C@H](Cc1ccccc1)NC(=O)[C@H](CC(N)=O)NC(=O)[C@@H]1CCCN1C(=O)[C@H](CO)NC(=O)[C@H](CO)NC(=O)[C@H](Cc1c[nH]cn1)NC(=O)[C@H](CCCNC(=N)N)NC(=O)[C@H](CC(C)C)NC(=O)[C@H](Cc1ccccc1)NC(=O)[C@H](CC(N)=O)NC(=O)[C@H](C)NC(=O)[C@H](CC(C)C)NC(=O)[C@H](CCCNC(=N)N)NC(=O)[C@H](CCC(N)=O)NC(=O)[C@@H](NC(=O)[C@H](C)NC(=O)[C@@H]1CSSC[C@H](NC(=O)[C@@H](N)CCCCNC(=O)CC[C@H](NC(=O)CCCCCCCCCCCCCCCCCCC(=O)O)C(=O)O)C(=O)N[C@@H](CC(N)=O)C(=O)N[C@@H]([C@@H](C)O)C(=O)N[C@@H](C)C(=O)N[C@@H]([C@@H](C)O)C(=O)N1)[C@@H](C)O)C(=O)N1CCC[C@H]1C(=O)N[C@@H](CO)C(=O)N[C@@H](CO)C(=O)N[C@H](C(=O)N[C@@H](CC(N)=O)C(=O)N[C@H](C(=O)NCC(=O)N[C@@H](CO)C(=O)N[C@@H](CC(N)=O)C(=O)N[C@H](C(=O)N[C@@H](Cc1ccc(O)cc1)C(N)=O)[C@@H](C)O)C(C)C)[C@@H](C)O
notes: modifications are with respect to human amylin; also called compound 48
B2: N^ε1-[(4S)-4-carboxy-4-[[(4S)-4-carboxy-4-(19-carboxynonadecanoylamino)butanoyl]amino]butanoyl]-[D-Asp14,Arg17,Pro21,Pro27,Arg35]-h-amylin (peptide)
peptide: K([γGlu-γGlu-C20 diacid])CNTATCATQRLA[dD]FLRHSSPNFGAIPSSTNVGSRTY-NH2
modifications: disulfide 2-7; N-terminus assumed
SMILES: CC[C@H](C)[C@H](NC(=O)[C@H](C)NC(=O)CNC(=O)[C@H](Cc1ccccc1)NC(=O)[C@H](CC(N)=O)NC(=O)[C@@H]1CCCN1C(=O)[C@H](CO)NC(=O)[C@H](CO)NC(=O)[C@H](Cc1c[nH]cn1)NC(=O)[C@H](CCCNC(=N)N)NC(=O)[C@H](CC(C)C)NC(=O)[C@H](Cc1ccccc1)NC(=O)[C@@H](CC(=O)O)NC(=O)[C@H](C)NC(=O)[C@H](CC(C)C)NC(=O)[C@H](CCCNC(=N)N)NC(=O)[C@H](CCC(N)=O)NC(=O)[C@@H](NC(=O)[C@H](C)NC(=O)[C@@H]1CSSC[C@H](NC(=O)[C@@H](N)CCCCNC(=O)CC[C@H](NC(=O)CC[C@H](NC(=O)CCCCCCCCCCCCCCCCCCC(=O)O)C(=O)O)C(=O)O)C(=O)N[C@@H](CC(N)=O)C(=O)N[C@@H]([C@@H](C)O)C(=O)N[C@@H](C)C(=O)N[C@@H]([C@@H](C)O)C(=O)N1)[C@@H](C)O)C(=O)N1CCC[C@H]1C(=O)N[C@@H](CO)C(=O)N[C@@H](CO)C(=O)N[C@H](C(=O)N[C@@H](CC(N)=O)C(=O)N[C@H](C(=O)NCC(=O)N[C@@H](CO)C(=O)N[C@@H](CCCNC(=N)N)C(=O)N[C@H](C(=O)N[C@@H](Cc1ccc(O)cc1)C(N)=O)[C@@H](C)O)C(C)C)[C@@H](C)O
B3: N^ε1-[2-[2-[2-[[(4S)-4-carboxy-4-(19-carboxynonadecanoylamino)butanoyl]amino]ethoxy]ethoxy]acetyl]-[Arg17,Pro21,Pro27,Pro28,Pro31]-h-amylin (peptide)
peptide: K([AEEA-γGlu-C20 diacid])CNTATCATQRLANFLRHSSPNFGAIPPSTPVGSNTY-NH2
modifications: disulfide 2-7
notes: Acylated analogue of human amylin; also called compound 53
B4: N^ε1-[2-[2-[2-[[(4S)-4-carboxy-4-(19-carboxynonadecanoylamino)butanoyl]amino]ethoxy]ethoxy]acetyl]-[Arg17,Pro21,Pro27,Pro28,Pro34]-h-amylin (peptide)
peptide: K([AEEA-γGlu-C20 diacid])CNTATCATQRLANFLRHSSPNFGAIPPSTNVGPNTY-NH2
modifications: disulfide 2-7; N-terminus assumed
SMILES: CC[C@H](C)[C@H](NC(=O)[C@H](C)NC(=O)CNC(=O)[C@H](Cc1ccccc1)NC(=O)[C@H](CC(N)=O)NC(=O)[C@@H]1CCCN1C(=O)[C@H](CO)NC(=O)[C@H](CO)NC(=O)[C@H](Cc1c[nH]cn1)NC(=O)[C@H](CCCNC(=N)N)NC(=O)[C@H](CC(C)C)NC(=O)[C@H](Cc1ccccc1)NC(=O)[C@H](CC(N)=O)NC(=O)[C@H](C)NC(=O)[C@H](CC(C)C)NC(=O)[C@H](CCCNC(=N)N)NC(=O)[C@H](CCC(N)=O)NC(=O)[C@@H](NC(=O)[C@H](C)NC(=O)[C@@H]1CSSC[C@H](NC(=O)[C@@H](N)CCCCNC(=O)COCCOCCNC(=O)CC[C@H](NC(=O)CCCCCCCCCCCCCCCCCCC(=O)O)C(=O)O)C(=O)N[C@@H](CC(N)=O)C(=O)N[C@@H]([C@@H](C)O)C(=O)N[C@@H](C)C(=O)N[C@@H]([C@@H](C)O)C(=O)N1)[C@@H](C)O)C(=O)N1CCC[C@H]1C(=O)N1CCC[C@H]1C(=O)N[C@@H](CO)C(=O)N[C@H](C(=O)N[C@@H](CC(N)=O)C(=O)N[C@H](C(=O)NCC(=O)N1CCC[C@H]1C(=O)N[C@@H](CC(N)=O)C(=O)N[C@H](C(=O)N[C@@H](Cc1ccc(O)cc1)C(N)=O)[C@@H](C)O)C(C)C)[C@@H](C)O
notes: Acylated analogue of human amylin; also called compound 55
B5: N^ε1-[2-[2-[2-[[(4S)-4-carboxy-4-(19-carboxynonadecanoylamino)butanoyl]amino]ethoxy]ethoxy]acetyl]-[Arg17,Pro21,Pro27,Pro29,Pro31]-h-amylin (peptide)
peptide: K([AEEA-γGlu-C20 diacid])CNTATCATQRLANFLRHSSPNFGAIPSPTPVGSNTY-NH2
modifications: disulfide 2-7; N-terminus assumed
SMILES: CC[C@H](C)[C@H](NC(=O)[C@H](C)NC(=O)CNC(=O)[C@H](Cc1ccccc1)NC(=O)[C@H](CC(N)=O)NC(=O)[C@@H]1CCCN1C(=O)[C@H](CO)NC(=O)[C@H](CO)NC(=O)[C@H](Cc1c[nH]cn1)NC(=O)[C@H](CCCNC(=N)N)NC(=O)[C@H](CC(C)C)NC(=O)[C@H](Cc1ccccc1)NC(=O)[C@H](CC(N)=O)NC(=O)[C@H](C)NC(=O)[C@H](CC(C)C)NC(=O)[C@H](CCCNC(=N)N)NC(=O)[C@H](CCC(N)=O)NC(=O)[C@@H](NC(=O)[C@H](C)NC(=O)[C@@H]1CSSC[C@H](NC(=O)[C@@H](N)CCCCNC(=O)COCCOCCNC(=O)CC[C@H](NC(=O)CCCCCCCCCCCCCCCCCCC(=O)O)C(=O)O)C(=O)N[C@@H](CC(N)=O)C(=O)N[C@@H]([C@@H](C)O)C(=O)N[C@@H](C)C(=O)N[C@@H]([C@@H](C)O)C(=O)N1)[C@@H](C)O)C(=O)N1CCC[C@H]1C(=O)N[C@@H](CO)C(=O)N1CCC[C@H]1C(=O)N[C@H](C(=O)N1CCC[C@H]1C(=O)N[C@H](C(=O)NCC(=O)N[C@@H](CO)C(=O)N[C@@H](CC(N)=O)C(=O)N[C@H](C(=O)N[C@@H](Cc1ccc(O)cc1)C(N)=O)[C@@H](C)O)C(C)C)[C@@H](C)O
notes: Acylated analogue of human amylin; also called compound 54

What was measured:
rat calcitonin receptor [1] = biological target: T1, rat calcitonin receptor; assay: SPA competition vs 125I-calcitonin, membranes with rat CTR (Assay VIII)
[2] = biological target: T2, human calcitonin receptor; assay: IC50 at hCTR divided by IC50 at hAmylin-R (reference)
In short: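 Scintillation proximity competition binding on cell membranes at 35 ng/μL with SPA beads, in 50 mM Hepes pH 7.4, 1 mM CaCl2, 5 mM MgCl₂, 0.1% OA, 0.02% Tween20. Incubated 120 min at 25° C with shaking. IC₅₀ from one-site competition fit.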

rat calcitonin receptor [3] = biological target: T1, rat calcitonin receptor; assay: IC50 at rCTR divided by IC50 at rAmylin-R (reference)
[4] = biological target: T3, rat amylin receptor (rat calcitonin …); assay: SPA competition vs 125I-rat amylin, membranes with rat CTR + rat RAMP3 (Assay VI)
rat calcitonin receptor [5] = biological target: T4, rat calcitonin receptor; assay: SPA competition vs 125I-calcitonin, membranes (Assay VIII)
[6] = biological target: T5, rat amylin receptor (rat calcitonin …); assay: SPA competition vs 125I-rat amylin, membranes (Assay VI)
rat calcitonin receptor [7] = biological target: T6, rat calcitonin receptor; assay: SPA competition vs 125I-calcitonin, membranes with rat CTR (Assay VIII)
rat calcitonin receptor [8] = biological target: T6, rat calcitonin receptor; assay: ratio IC50 rat calcitonin receptor / IC50 rat amylin receptor
[9] = biological target: T7, rat amylin receptor (rat calcitonin …); assay: SPA competition vs 125I-rat amylin, membranes with rat CTR + rat RAMP3 (Assay VI)

IC50 (rat calcitonin receptor [5]) [nM]	IC50 (rat calcitonin receptor [7]) [nM]	Ratio rCT/rAmylin binding (rat calcitonin receptor [8])	IC50 [9] [nM]	also measured	Binder
				IC50 (rat calcitonin receptor [1]): 112 nM; Ratio hCT/hAmylin binding [2]: 69.7; Ratio rCT/rAmylin binding (rat calcitonin receptor [3]): 201; IC50 [4]: 0.558 nM	B1
536				IC50 [6]: 1.69 nM	B2
30.9					KCNTATCATQRLADFLRHSSPNFGAIPSSTNVGSRTY-NH2 (disulfide 2-7, Not acylated) [[Asp14,Arg17,Pro21,Pro27,Arg35]-h-amylin]
	10.9	130	0.084		B3
	6.25	77.2	0.081		B4
	8.79	179	0.049		B5
